Test results taken from article PMC10419500, “FvWRKY50 is an important gene that regulates both vegetative growth and reproductive growth in strawberry”.

B1: proFT3 probe W982 (dsDNA)
DNA 1: GATCCATTTCCATTGACCAGACTCACCTCAC
DNA 2: GTGAGGTGAGTCTGGTCAATGGAAATGGATC
B2: proDFR probe W290 (dsDNA)
DNA 1: CTTATATCCACATCTTGACCGTTCAGTTTATAG
DNA 2: CTATAAACTGAACGGTCAAGATGTGGATATAAG
B3: proCHI probe W1610 (dsDNA)
DNA 1: CTCATTTTACCAAGTTGACCCCTTCATTTG
DNA 2: CAAATGAAGGGGTCAACTTGGTAAAATGAG

Target: FvWRKY50-His (Fragaria vesca? (diploid strawberry; …, UniProt A0A2H4G369 6-213)
Sequence (A0A2H4G369 entry or part of it): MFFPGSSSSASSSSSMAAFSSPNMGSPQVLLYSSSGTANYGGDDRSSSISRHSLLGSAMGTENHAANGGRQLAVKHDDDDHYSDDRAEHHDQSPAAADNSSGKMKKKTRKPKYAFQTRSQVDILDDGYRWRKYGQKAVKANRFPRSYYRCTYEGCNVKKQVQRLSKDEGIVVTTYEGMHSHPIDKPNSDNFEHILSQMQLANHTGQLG
Assay: EMSA; 200-fold unlabeled probe used as competitor; EMSA buffer, salt, pH and temperature not given in the material
Details: protein: recombinant, tags: His (pET30a; also written His-FvWRKY50), blunt

| Binder | binding result (label: biotin) | binding result |
| --- | --- | --- |
| B1 | binds | – |
| B2 | – | binds |
| B3 | – | binds |
